Assay results from the supplement of paper PMC5998384.

What was measured:
HeLa Kyoto [1] = assay: solubility change mitosis vs G1/S (difference of NP-40 vs SDS log2 ratios) (log2 ratio difference); higher = more soluble in mitosis
HeLa Kyoto [2] = assay: solubility in G1/S (NP-40 vs SDS abundance) (log2 ratio); higher = more soluble; conditions: cell cycle stage: G1/S
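Wherever solubility change mitosis vs G1/S (difference of NP-40 vs SDS log2 ratios) is given: synchronized HeLa Kyoto cells (double thymidine block for G1/S, nocodazole release for mitosis), protein amounts in NP-40 versus SDS lysates quantified by mass spectrometry, three biological replicates.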
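Wherever solubility in G1/S (NP-40 vs SDS abundance) is given: HeLa Kyoto cells arrested at G1/S by double thymidine block, proteins quantified by TMT10plex mass spectrometry in mild NP-40 versus SDS extracts, three biological replicates.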

Sequence	solubility change mitosis (log2) (HeLa Kyoto [1])	solubility in G1/S (log2) (HeLa Kyoto [2])
MSSPGIDGDPKPPCLPRNGLVKLPGQPNGLGAASITKGTPATKNRPCQPPPPPTLPPPSLAAPLSRAALAGGPCTPAGGPASALAPGHPAERPPLATDEKILNGLFWYFSACEKCVLAQVCKAWRRVLYQPKFWAGLTPVLHAKELYNVLPGGEKEFVNLQGFAARGFEGFCLVGVSDLDICEFIDNYALSKKGVKAMSLKRSTITDAGLEVMLEQMQGVVRLELSGCNDFTEAGLWSSLSARITSLSVSDCINVADDAIAAISQLLPNLAELSLQAYHVTDTALAYFTARQGHSTHTLRLLSCWEITNHGVVNVVHSLPNLTALSLSGCSKVTDDGVELVAENLRKLRSLDLSWCPRITDMALEYVACDLHRLEELVLDRCVRITDTGLSYLSTMSSLRSLYLRWCCQVQDFGLKHLLALGSLRLLSLAGCPLLTTTGLSGLVQLQELEELELTNCPGATPELFKYFSQHLPRCLVIE [FBXL16]	0.212	0.0543
MSSPPEGKLETKAGHPPAVKAGGMRIVQKHPHTGDTKEEKDKDDQEWESPSPPKPTVFISGVIARGDKDFPPAAAQVAHQKPHASMDKHPSPRTQHIQQPRK [DAP]	0.309	-0.1
MSTAMNFGTKSFQPRPPDKGSFPLDHLGECKSFKEKFMKCLHNNNFENALCRKESKEYLECRMERKLMLQEPLEKLGFGDLTSGKSEAKK [COX19]	0.143	0.00408
MSTQDERQINTEYAVSLLEQLKLFYEQQLFTDIVLIVEGTEFPCHKMVLATCSSYFRAMFMSGLSESKQTHVHLRNVDAATLQIIITYAYTGNLAMNDSTVEQLYETACFLQVEDVLQRCREYLIKKINAENCVRLLSFADLFSCEELKQSAKRMVEHKFTAVYHQDAFMQLSHDLLIDILSSDNLNVEKEETVREAAMLWLEYNTESRSQYLSSVLSQIRIDALSEVTQRAWFQGLPPNDKSVVVQGLYKSMPKFFKPRLGMTKEEMMIFIEASSENPCSLYSSVCYSPQAEKVYKLCSPPADLHKVGTVVTPDNDIYIAGGQVPLKNTKTNHSKTSKLQTAFRTVNCFYWFDAQQNTWFPKTPMLFVRIKPSLVCCEGYIYAIGGDSVGGELNRRTVERYDTEKDEWTMVSPLPCAWQWSAAVVVHDCIYVMTLNLMYCYFPRSDSWVEMAMRQTSRSFASAAAFGDKIFYIGGLHIATNSGIRLPSGTVDGSSVTVEIYDVNKNEWKMAANIPAKRYSDPCVRAVVISNSLCVFMRETHLNERAKYVTYQYDLELDRWSLRQHISERVLWDLGRDFRCTVGKLYPSCLEESPWKPPTYLFSTDGTEEFELDGEMVALPPV [KBTBD2]	-0.00685	-0.319
MSVDKAELCGSLLTWLQTFHVPSPCASPQDLSSGLAVAYVLNQIDPSWFNEAWLQGISEDPGPNWKLKVSNLKMVLRSLVEYSQDVLAHPVSEEHLPDVSLIGEFSDPAELGKLLQLVLGCAISCEKKQDHIQRIMTLEESVQHVVMEAIQELMTKDTPDSLSPETYGNFDSQSRRYYFLSEEAEEGDELQQRCLDLERQLMLLSEEKQSLAQENAGLRERMGRPEGEGTPGLTAKKLLLLQSQLEQLQEENFRLESGREDERLRCAELEREVAELQHRNQALTSLAQEAQALKDEMDELRQSSERAGQLEATLTSCRRRLGELRELRRQVRQLEERNAGHAERTRQLEDELRRAGSLRAQLEAQRRQVQELQGQRQEEAMKAEKWLFECRNLEEKYESVTKEKERLLAERDSLREANEELRCAQLQPRGLTQADPSLDPTSTPVDNLAAEILPAELRETLLRLQLENKRLCRQEAADRERQEELQRHLEDANRARHGLETQHRLNQQQLSELRAQVEDLQKALQEQGGKTEDAISILLKRKLEEHLQKLHEADLELQRKREYIEELEPPTDSSTARRIEELQHNLQKKDADLRAMEERYRRYVDKARMVMQTMEPKQRPAAGAPPELHSLRTQLRERDVRIRHLEMDFEKSRSQREQEEKLLISAWYNMGMALQQRAGEERAPAHAQSFLAQQRLATNSRRGPLGRLASLNLRPTDKH [HOOK2]	-0.0619	0.231
MSWIPFKIGQPKKQIVPKTVERDFEREYGKLQQLEEQTRRLQKDMKKSTDADLAMSKSAVKISLDLLSNPLCEQDQDLLNMVTALDTAMKRMDAFNQEKVNQIQKTVIEPLKKFGSVFPSLNMAVKRREQALQDYRRLQAKVEKYEEKEKTGPVLAKLHQAREELRPVREDFEAKNRQLLEEMPRFYGSRLDYFQPSFESLIRAQVVYYSEMHKIFGDLSHQLDQPGHSDEQRERENEAKLSELRALSIVADD [BIN3]	0.0471	0.418
MSWLLFLAHRVALAALPCRRGSRGFGMFYAVRRGRKTGVFLTWNECRAQVDRFPAARFKKFATEDEAWAFVRKSASPEVSEGHENQHGQESEAKASKRLREPLDGDGHESAEPYAKHMKPSVEPAPPVSRDTFSYMGDFVVVYTDGCCSSNGRRRPRAGIGVYWGPGHPLNVGIRLPGRQTNQRAEIHAACKAIEQAKTQNINKLVLYTDSMFTINGITNWVQGWKKNGWKTSAGKEVINKEDFVALERLTQGMDIQWMHVPGHSGFIGNEEADRLAREGAKQSED [RNASEH1]	-0.0935	0.274
MTALSARMLTRSRSLGPGAGPRGCREEPGPLRRREAAAEARKSHSPVKRPRKAQRLRVAYEGSDSEKGEGAEPLKVPVWEPQDWQQQLVNIRAMRNKKDAPVDHLGTEHCYDSSAPPKVRRYQVLLSLMLSSQTKDQVTAGAMQRLRARGLTVDSILQTDDATLGKLIYPVGFWRSKVKYIKQTSAILQQHYGGDIPASVAELVALPGVGPKMAHLAMAVAWGTVSGIAVDTHVHRIANRLRWTKKATKSPEETRAALEEWLPRELWHEINGLLVGFGQQTCLPVHPRCHACLNQALCPAAQGL [NTHL1]	0.29	0.0579
MTLKASEGESGGSMHTALSDLYLEHLLQKRSRPEAVSHPLNTVTEDMYTNGSPAPGSPAQVKGQEVRKVRLIQFEKVTEEPMGITLKLNEKQSCTVARILHGGMIHRQGSLHVGDEILEINGTNVTNHSVDQLQKAMKETKGMISLKVIPNQQSRLPALQMFMRAQFDYDPKKDNLIPCKEAGLKFATGDIIQIINKDDSNWWQGRVEGSSKESAGLIPSPELQEWRVASMAQSAPSEAPSCSPFGKKKKYKDKYLAKHSSIFDQLDVVSYEEVVRLPAFKRKTLVLIGASGVGRSHIKNALLSQNPEKFVYPVPYTTRPPRKSEEDGKEYHFISTEEMTRNISANEFLEFGSYQGNMFGTKFETVHQIHKQNKIAILDIEPQTLKIVRTAELSPFIVFIAPTDQGTQTEALQQLQKDSEAIRSQYAHYFDLSLVNNGVDETLKKLQEAFDQACSSPQWVPVSWVY [MPP1]	-0.0545	0.098
MTMGDKKSPTRPKRQAKPAADEGFWDCSVCTFRNSAEAFKCSICDVRKGTSTRKPRINSQLVAQQVAQQYATPPPPKKEKKEKVEKQDKEKPEKDKEISPSVTKKNTNKKTKPKSDILKDPPSEANSIQSANATTKTSETNHTSRPRLKNVDRSTAQQLAVTVGNVTVIITDFKEKTRSSSTSSSTVTSSAGSEQQNQSSSGSESTDKGSSRSSTPKGDMSAVNDESF [RYBP]	0.0865	0.252
MTPVRMQHSLAGQTYAVPLIQPDLRREEAVQQMADALQYLQKVSGDIFSRISQQVEQSRSQVQAIGEKVSLAQAKIEKIKGSKKAIKVFSSAKYPAPERLQEYGSIFTGAQDPGLQRRPRHRIQSKHRPLDERALQEKLKDFPVCVSTKPEPEDDAEEGLGGLPSNISSVSSLLLFNTTENLYKKYVFLDPLAGAVTKTHVMLGAETEEKLFDAPLSISKREQLEQQVPENYFYVPDLGQVPEIDVPSYLPDLPGIANDLMYIADLGPGIAPSAPGTIPELPTFHTEVAEPLKVDLQDGVLTPPPPPPPPPPAPEVLASAPPLPPSTAAPVGQGARQDDSSSSASPSVQGAPREVVDPSGGRATLLESIRQAGGIGKAKLRSMKERKLEKKKQKEQEQVRATSQGGHLMSDLFNKLVMRRKGISGKGPGAGEGPGGAFARVSDSIPPLPPPQQPQAEEDEDDWES [WASH2P]	0.0339	0.453
MTQDRPLLAVQEALKKCFPVVEEQQGLWQSALRDCQPLLSSLSNLAEQLQAAQNLRFEDVPALRAFPDLKERLRRKQLVAGDIVLDKLGERLAILLKVRDMVSSHVERVFQIYEQHADTVGIDAVLQPSAVSPSVADMLEWLQDIERHYRKSYLKRKYLLSSIQWGDLANIQALPKAWDRISKDEHQDLVQDILLNVSFFLEE [C1ORF109]	0.16	0.0701
MTSKGPEEEHPSVTLFRQYLRIRTVQPKPDYGAAVAFFEETARQLGLGCQKVEVAPGYVVTVLTWPGTNPTLSSILLNSHTDVVPVFKEHWSHDPFEAFKDSEGYIYARGAQDMKCVSIQYLEAVRRLKVEGHRFPRTIHMTFVPDEEVGGHQGMELFVQRPEFHALRAGFALDEGIANPTDAFTVFYSERSPWWVRVTSTGRPGHASRFMEDTAAEKLHKVVNSILAFREKEWQRLQSNPHLKEGSVTSVNLTKLEGGVAYNVIPATMSASFDFRVAPDVDFKAFEEQLQSWCQAAGEGVTLEFAQKWMHPQVTPTDDSNPWWAAFSRVCKDMNLTLEPEIMPAATDNRYIRAVGVPALGFSPMNRTPVLLHDHDERLHEAVFLRGVDIYTRLLPALASVPALPSDS [ACY1]	-0.0632	0.288
MTTRQATKDPLLRGVSPTPSKIPVRSQKRTPFPTVTSCAVDQENQDPRRWVQKPPLNIQRPLVDSAGPRPKARHQAETSQRLVGISQPRNPLEELRPSPRGQNVGPGPPAQTEAPGTIEFVADPAALATILSGEGVKSCHLGRQPSLAKRVLVRGSQGGTTQRVQGVRASAYLAPRTPTHRLDPARASCFSRLEGPGPRGRTLCPQRLQALISPSGPSFHPSTRPSFQELRRETAGSSRTSVSQASGLLLETPVQPAFSLPKGEREVVTHSDEGGVASLGLAQRVPLRENREMSHTRDSHDSHLMPSPAPVAQPLPGHVVPCPSPFGRAQRVPSPGPPTLTSYSVLRRLTVQPKTRFTPMPSTPRVQQAQWLRGVSPQSCSEDPALPWEQVAVRLFDQESCIRSLEGSGKPPVATPSGPHSNRTPSLQEVKIQRIGILQQLLRQEVEGLVGGQCVPLNGGSSLDMVELQPLLTEISRTLNATEHNSGTSHLPGLLKHSGLPKPCLPEECGEPQPCPPAEPGPPEAFCRSEPEIPEPSLQEQLEVPEPYPPAEPRPLESCCRSEPEIPESSRQEQLEVPEPCPPAEPRPLESYCRIEPEIPESSRQEQLEVPEPCPPAEPGPLQPSTQGQSGPPGPCPRVELGASEPCTLEHRSLESSLPPCCSQWAPATTSLIFSSQHPLCASPPICSLQSLRPPAGQAGLSNLAPRTLALRERLKSCLTAIHCFHEARLDDECAFYTSRAPPSGPTRVCTNPVATLLEWQDALCFIPVGSAAPQGSP [TROAP]	0.651	0.0401
MVARVWSLMRFLIKGSVAGGAVYLVYDQELLGPSDKSQAALQKAGEVVPPAMYQFSQYVCQQTGLQIPQLPAPPKIYFPIRDSWNAGIMTVMSALSVAPSKAREYSKEGWEYVKARTK [MIC13]	0.449	0.091
MVDHLANTEINSQRIAAVESCFGASGQPLALPGRVLLGEGVLTKECRKKAKPRIFFLFNDILVYGSIVLNKRKYRSQHIIPLEEVTLELLPETLQAKNRWMIKTAKKSFVVSAASATERQEWISHIEECVRRQLRATGRPPSTEHAAPWIPDKATDICMRCTQTRFSALTRRHHCRKCGFVVCAECSRQRFLLPRLSPKPVRVCSLCYRELAAQQRQEEAEEQGAGSPGQPAHLARPICGASSGDDDDSDEDKEGSRDGDWPSSVEFYASGVAWSAFHS [PLEKHF1]	0.00206	0.0679
